Measured values reported in patent US9464326B2, “Total and phosphorylated IL-1 receptor-associated kinase-1 and IL-1 receptor-associated kinase-4 as a biomarker for cancer progression and chemotherapy resistance” (University of Maryland, Baltimore, priority 2012, dated 2016).

Key:
Format in all cases: cell-based, human
CCRF-CEM cells = assay: Cell number and apoptosis assays; details: IRAK-1,-4 inhibitor 0-20 μM plus titrated drug, apoptosis by 7AAD at 48 hours, FIG. 23
Protocol: (§1) TLR ligands were diluted 2-fold. Cell lines (25-40×10^3/well) were cultured for 54 hours, whereas fresh patient-derived T-ALL cells (200×10^3/well) were cultured for 30 hours prior to adding [^3H]-thymidine for 18 hours. After this time point, cells were harvested with a Packard Filter-Mate-96 cell harvester (Perkin Elmer, Waltham, Mass., USA) and counted on Packard Top Count-NXT (Perkin Elmer, Waltham, Mass., USA). Results were expressed as average counts per minute (cpm). In some experiments CCRF-CEM cells were pre-treated with TLR1-TLR2 ligand (Pam3CysK4; 2.5 ug/ml) for 48 hrs, washed, and then cultured in the presence of varying concentrations of FBS. Forty-eight hours later, proliferation (±SD) was determined by ^3H-thymidine incorporation. Alternatively, apoptosis was measured by flow cytometry after staining cells with Annexin-V (BD Pharmingen, San Diego, Calif., USA) and propidium iodide (Sigma). Cell number was counted under microscopy by staining cells with trypan blue.
CCRF-CEM cells were treated with IRAK-1,-4 inhibitor for 24, 48, 72, and 96 hours.
The T-ALL cell line CCRF-CEM was cultured in the presence of 0, 1.2, 5, 10, and 20 μM IRAK-1,-4 inhibitor. (FIG. 23). To each concentration of IRAK-1,-4 inhibitor titrating doses of ABT-737 (1000→15 nM) vincristine, VS (10→0.1 nM), and paclitaxol, PAC (100→1.5 nM). […] Apoptosis was measure 48 hours later by staining cells with 7AAD and analyzed by flow cytometry.

Loucy = assay: Proliferation (3H-thymidine) of Loucy; details: 3H-thymidine uptake, 72 h
Source text: (§2) CCRF-CEM, CEM/C1, CEM/C2, CEM-C7, Jurkat, Loucy, Molt-4, HSB-2, SUP-T1, Hut 78, HH, Hut 102, MO, and H9 T-leukemia and T-lymphoma cell lines were purchased from the American Type Culture Collection (Manassas, Va., USA). All of the cell lines were initially expanded and cryopreserved within one month of receipt. Cells were typically used for 6 months at which time a fresh vial of cryopreserved cells was used. Total T cells from healthy donors were isolated via negative selection followed by positive selection using a CD3+ selection kit (Invitrogen, Carlsbad, Calif.). T cells were isolated from patients with T-ALL bone marrow or peripheral blood samples containing more than 70% leukemia cells using a CD2+ isolation kit (STEMCELL Technologies, Vancouver, Canada). All tissues were collected under institutional IRB-approved protocols and all participants gave written informed assent/consent. For in vitro experiments, T-ALL cells were cultured in AIM-V medium supplemented with 20% human AB serum in the presence of recombinant human stem cell factor (50 ng/mL; Amgen, Thousand Oaks, Calif.), insulin (20 nM; Sigma-Aldrich, St Louis, Mo., USA) and IL-7 (50 ng/mL; R&D Systems, Minneapolis, Minn., USA). In other experiments, protein lysate was collected using the Full Moon Biosystems (Sunnyvale, Calif., USA) buffer prior to protein examination by western blot or protein array.
as §1, with “Cells were cultured in a 96-well plate (Corning Costar, Corning, N.Y., USA) with various concentrations of TLR ligands 1-9, starting at 10 μg/ml, in a final volume of 200 ul. TLR ligands” for “TLR ligands”, “trypan blue. […]” for “trypan blue.”

HSB-2 = assay: Proliferation (3H-thymidine) of HSB-2
Source text: as §2
as §1, with “Cells were cultured in a 96-well plate (Corning Costar, Corning, N.Y., USA) with various concentrations of TLR ligands 1-9, starting at 10 μg/ml, in a final volume of 200 ul. TLR ligands” for “TLR ligands”
(§3) The following TLR ligands were purchased from Invivogen (San Diego, Calif., USA): tripalmitoyl-S-(bis(palmitoyloxy)propyl)-Cys-Ser-(Lys)3-Lys (TLR1-2); Poly I:C (TLR3); ultrapure S. Minnesota Lipopolysaccharide (TLR4); S. typhimurium flagellin (TLR5); FSL-1 (TLR2/6); Imiquimod (TLR7); ssRNA40/Lyovec (TLR8); CpG-ODN 2006 (TLR9).

Molt-4 = assay: Proliferation (3H-thymidine) of Molt-4; details: 3H-thymidine uptake, 72 h
Source text: as §2, with “In other experiments, protein lysate was collected using the Full Moon Biosystems (Sunnyvale, Calif., USA) buffer prior to protein examination by western blot or protein array.” left out
(§4) Cells were cultured in a 96-well plate (Corning Costar, Corning, N.Y., USA) with various concentrations of TLR ligands 1-9, starting at 10 μg/ml, in a final volume of 200 ul. […] After this time point, cells were harvested with a Packard Filter-Mate-96 cell harvester (Perkin Elmer, Waltham, Mass., USA) and counted on Packard Top Count-NXT (Perkin Elmer, Waltham, Mass., USA). Results were expressed as average counts per minute (cpm). […] Forty-eight hours later, proliferation (±SD) was determined by ^3H-thymidine incorporation. Alternatively, apoptosis was measured by flow cytometry after staining cells with Annexin-V (BD Pharmingen, San Diego, Calif., USA) and propidium iodide (Sigma). Cell number was counted under microscopy by staining cells with trypan blue. […]

MO = assay: Proliferation (3H-thymidine) of MO; details: 3H-thymidine uptake, 72 h
Source text: as §2, with “In other experiments, protein lysate was collected using the Full Moon Biosystems (Sunnyvale, Calif., USA) buffer prior to protein examination by western blot or protein array.” left out
as §4

A375 cells = assay: Western blot of IRAK phosphorylation in A375; details: 48 hours
Protocol: (§5) FIG. 22. Effects of TLR stimulation and cytokines on IRAK phosphorylation in melanoma cells. (A) A375 cells were cultured in the presence of anti-IL-18, anti-CXCL-1, (R&D Systems), anti-IL-1 (BioLegend), or mouse IgG (Sigma-Aldrich) all at 10 μg/ml. Forty-eight hours later the levels of the indicated proteins were determined by western blot. (B) A375 cells, which express p-IRAK-1 and p-IRAK-4, and G361 melanoma cells, which express very low levels of p-IRAK-1 (and express TLR5) were cultured in the presence of TLR1-TLR2 agonist (Pam3CysK4; 2.5 μg/ml) or TLR5 (flagellin; 100 ng/ml; InVivogen). Forty-eight hours later total protein was collected and the levels of the indicated proteins were examined by western blot.
(§6) Total cell extracts were prepared from melanoma cells. […] Melanoma tissue arrays were purchased from US Biomax, Inc (Rockville, Md.). For immunohistochemical staining samples were stained with mouse monoclonal anti-human phosphor-IRAK.-4 antibody (Abnova; dilution, 3.5 μg/ml) or normal mouse serum. Tissue histology sections (5-μm-thick) were deparaffinized, hydrated, heated in boiling 10 mmol/L sodium citrate (pH 6.0), for antigen retrieval, for 30 min and washed in Tris buffer. Peroxide blocking was done with 3% […] in methanol at room temperature for 15 min, followed by 10% fetal bovine serum in TBS-t for 30 min at room temperature. Primary antibody incubation was done overnight at 4° C. Secondary antibody incubation with horse anti-mouse (1:200; Vector Laboratories, Burlingame, Calif.) was done for 1 hr, followed by application of diaminobenzidine chromogen for 5 min. The slides were then counterstained with hematoxylin and topped with a coverslip. IHC specimens were analyzed using “quick score” system in which the intensity of the immunohistochemical reaction was scored by multiplying the intensity 1 (weak), 2 (moderate), and 3 (strong) and the proportion of cells staining positively 0 (<10%), 1 (10-25%), 2 (26-50%), 3 (51-75%) or 4 (>75%).

Hut 102 = assay: Proliferation (3H-thymidine) of Hut 102; details: 3H-thymidine uptake, 72 h
Source text: as §2, with “In other experiments, protein lysate was collected using the Full Moon Biosystems (Sunnyvale, Calif., USA) buffer prior to protein examination by western blot or protein array.” left out
as §4

CEM-C2 = assay: Proliferation (3H-thymidine) of CEM-C2; details: 3H-thymidine uptake, 72 h
Source text: as §2
as §1, with “Cells were cultured in a 96-well plate (Corning Costar, Corning, N.Y., USA) with various concentrations of TLR ligands 1-9, starting at 10 μg/ml, in a final volume of 200 ul. TLR ligands” for “TLR ligands”, “trypan blue. […]” for “trypan blue.”

CCRF-CEM = assay: Proliferation (3H-thymidine) of CCRF-CEM; details: 3H-thymidine uptake, 72 h
Source text: as §2
as §1, with “Cells were cultured in a 96-well plate (Corning Costar, Corning, N.Y., USA) with various concentrations of TLR ligands 1-9, starting at 10 μg/ml, in a final volume of 200 ul. TLR ligands” for “TLR ligands”
as §3

Jurkat = assay: Proliferation (3H-thymidine) of Jurkat; details: 3H-thymidine uptake, 72 h
Source text: as §2
as §1, with “Cells were cultured in a 96-well plate (Corning Costar, Corning, N.Y., USA) with various concentrations of TLR ligands 1-9, starting at 10 μg/ml, in a final volume of 200 ul. TLR ligands” for “TLR ligands”, “trypan blue. […]” for “trypan blue.”

SupT1 = assay: Proliferation (3H-thymidine) of SupT1; details: SupT1; 3H-thymidine uptake, 72 h
Source text: as §2
as §1, with “Cells were cultured in a 96-well plate (Corning Costar, Corning, N.Y., USA) with various concentrations of TLR ligands 1-9, starting at 10 μg/ml, in a final volume of 200 ul. TLR ligands” for “TLR ligands”
as §3

[1] = tested on: Primary T-cells Activated; assay: Proliferation (3H-thymidine) of activated primary T-cells; details: Primary T-cells, Activated
Source text: as §2
as §1, with “Cells were cultured in a 96-well plate (Corning Costar, Corning, N.Y., USA) with various concentrations of TLR ligands 1-9, starting at 10 μg/ml, in a final volume of 200 ul. TLR ligands” for “TLR ligands”
as §3

G361 melanoma cells = assay: Western blot of IRAK phosphorylation in G361; details: 48 hours
Protocol: as §5, §6

H9 = assay: Proliferation (3H-thymidine) of H9; details: H9
Source text: as §2
as §1, with “Cells were cultured in a 96-well plate (Corning Costar, Corning, N.Y., USA) with various concentrations of TLR ligands 1-9, starting at 10 μg/ml, in a final volume of 200 ul. TLR ligands” for “TLR ligands”
as §3

CEM-C1 = assay: Proliferation (3H-thymidine) of CEM-C1; details: 3H-thymidine uptake, 72 h
Source text: as §2
as §1, with “Cells were cultured in a 96-well plate (Corning Costar, Corning, N.Y., USA) with various concentrations of TLR ligands 1-9, starting at 10 μg/ml, in a final volume of 200 ul. TLR ligands” for “TLR ligands”, “trypan blue. […]” for “trypan blue.”

CEM-C7 = assay: Proliferation (3H-thymidine) of CEM-C7
Source text: as §2
as §1, with “Cells were cultured in a 96-well plate (Corning Costar, Corning, N.Y., USA) with various concentrations of TLR ligands 1-9, starting at 10 μg/ml, in a final volume of 200 ul. TLR ligands” for “TLR ligands”
as §3

Primary T-cells Non-Act = assay: Proliferation (3H-thymidine) of non-activated primary T-cells; details: 3H-thymidine uptake, 72 h
Source text: as §2, with “In other experiments, protein lysate was collected using the Full Moon Biosystems (Sunnyvale, Calif., USA) buffer prior to protein examination by western blot or protein array.” left out
as §4

Hut-78 = assay: Proliferation (3H-thymidine) of Hut-78; details: 3H-thymidine uptake, 72 h
Source text: as §2, with “In other experiments, protein lysate was collected using the Full Moon Biosystems (Sunnyvale, Calif., USA) buffer prior to protein examination by western blot or protein array.” left out
as §4

HH = assay: Proliferation (3H-thymidine) of HH; details: 3H-thymidine uptake, 72 h
Source text: as §2, with “In other experiments, protein lysate was collected using the Full Moon Biosystems (Sunnyvale, Calif., USA) buffer prior to protein examination by western blot or protein array.” left out
as §4

[2] = Pam3CysK4 2.5 μg/ml or flagellin 100 ng/ml, FIG. 22B

Molecule: oligomicin
- synergy with IRAK-1,-4 inhibitor (CCRF-CEM cells): No synergist effect

B1: Flagellin: S. typhimurium flagellin, TLR5 ligand (Invivogen) (protein, UniProt P06179 2-495, looked up)
Flagellin: AQVINTNSLSLLTQNNLNKSQSALGTAIERLSSGLRINSAKDDAAGQAIANRFTANIKGLTQASRNANDGISIAQTTEGALNEINNNLQRVRELAVQSANSTNSQSDLDSIQAEITQRLNEIDRVSGQTQFNGVKVLAQDNTLTIQVGANDGETIDIDLKQINSQTLGLDTLNVQQKYKVSDTAATVTGYADTTIALDNSTFKASATGLGGTDQKIDGDLKFDDTTGKYYAKVTVTGGTGKDGYYEVSVDKTNGEVTLAGGATSPLTGGLPATATEDVKNVQVANADLTEAKAALTAAGVTGTASVVKMSYTDNNGKTIDGGLAVKVGDDYYSATQNKDGSISINTTKYTADDGTSKTALNKLGGADGKTEVVSIGGKTYAASKAEGHNFKAQPDLAEAAATTTENPLQKIDAALAQVDTLRSDLGAVQNRFNSAITNLGNTVNNLTSARSRIEDSDYATEVSNMSRAQILQQAGTSVLAQANQVPQNVLSLLR
- Proliferative effects of TLR ligands (Loucy): ∘
- Proliferative effects of TLR ligands (HSB-2; 3H-thymidine uptake, 72 h): − (reduced proliferation)
- TLR ligand concentration in parentheses below the symbol (HSB-2; no unit in table (μg/ml)): (10)
- Proliferative effects of TLR ligands (Molt-4): ∘
- Proliferative effects of TLR ligands (MO): ∘
- p-IRAK-1 or p-IRAK-4 expression levels (A375 cells; [2]): neither TLR-1-TLR2 agonist (Pam3CysK4), nor TLR5 (Flagellin) stimulation increased or induced
- total and p-IRAK-4 levels (A375 cells; flagellin 100 ng/ml): reduced
- Proliferative effects of TLR ligands (Hut 102): ∘
- Proliferative effects of TLR ligands (CEM-C2): ∘
- Proliferative effects of TLR ligands (CCRF-CEM): ∘
- Proliferative effects of TLR ligands (Jurkat): ∘
- Proliferative effects of TLR ligands (SupT1): ∘
- Proliferative effects of TLR ligands ([1]; 3H-thymidine uptake, 72 h): + (enhanced proliferation by 25% or greater)
- TLR ligand concentration in parentheses below the symbol ([1]; no unit in table (μg/ml)): (10)
- p-IRAK-1 or p-IRAK-4 expression levels (G361 melanoma cells; [2]): neither TLR-1-TLR2 agonist (Pam3CysK4), nor TLR5 (Flagellin) stimulation increased or induced
- total and p-IRAK-4 levels (G361 melanoma cells; flagellin 100 ng/ml): reduced
- Proliferative effects of TLR ligands (H9; 3H-thymidine uptake, 72 h): − (reduced proliferation)
- TLR ligand concentration in parentheses below the symbol (H9; no unit in table (μg/ml)): (10)
- Proliferative effects of TLR ligands (CEM-C1): ∘
- Proliferative effects of TLR ligands (CEM-C7; 3H-thymidine uptake, 72 h): − (reduced proliferation)
- TLR ligand concentration in parentheses below the symbol (CEM-C7; no unit in table (μg/ml)): (2.5)
- Proliferative effects of TLR ligands (Primary T-cells Non-Act): ∘
- Proliferative effects of TLR ligands (Hut-78): ∘
- Proliferative effects of TLR ligands (HH): ∘
